From paper PMC6234289

Molecular target: ribosome (40S ribosomal subunit) of RACK1-downregulated HeLa cells
Assay: in vitro ribosome interaction assay (iRIA)
Conditions: parent: est. 1.1; read off a plot

response: 0.47 Abs450
Substance: MBP-RACK1, wild type (from UniProt P63244) R36D; K38E
